In experiment [1] the target is T1, FLAG-tagged wild-type human angiotensin II type I receptor (FLAG-AT1R) (Homo sapiens, UniProt P30556).
T1 construct: angiotensin II type I receptor (AT1R), human, wild type; The signalling assays used FLAG-AT1R in HEK293T or HTLA cells; also called WT receptor; source: Expi293F TetR, transfected, purified in LMNG/CHS (M1-αFLAG resin, SEC); also on intact Expi293F TetR cells stably expressing FLAG-AT1R under a tetracycline-inducible promoter; not shown: FLAG, N-terminal, kept
T1 sequence (P30556 whole entry): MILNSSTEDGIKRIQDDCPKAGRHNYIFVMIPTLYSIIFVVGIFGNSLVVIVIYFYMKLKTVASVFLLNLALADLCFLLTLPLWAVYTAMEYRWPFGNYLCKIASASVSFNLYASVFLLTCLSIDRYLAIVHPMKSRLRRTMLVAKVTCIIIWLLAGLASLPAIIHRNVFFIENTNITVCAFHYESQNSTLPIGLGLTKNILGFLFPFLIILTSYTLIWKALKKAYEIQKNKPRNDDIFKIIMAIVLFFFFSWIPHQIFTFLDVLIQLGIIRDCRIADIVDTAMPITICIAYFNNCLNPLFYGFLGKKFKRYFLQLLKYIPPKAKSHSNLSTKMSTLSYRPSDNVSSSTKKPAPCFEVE
Put plainly: flow cytometry on cells; purified nanobody (single point 250 or 500 nM, or titrated) on Expi293F TetR cells expressing FLAG-AT1R preincubated with 10 μM losartan at 4 °C for 30 min; detected with αV5-AlexaFluor647; 20 mM Hepes pH 7.4, 150 mM NaCl, 0.1% BSA. As to conditions: one partner purified.

Experiment [2] deals with T1, FLAG-tagged wild-type human angiotensin ….
For experiment [3], the target named is FLAG-tagged wild-type human angiotensin II type I receptor (FLAG-AT1R) (human) (UniProt P30556). Put plainly: flow cytometry on cells; purified nanobody (single point 250 nM, or titrated) on Expi293F TetR cells expressing FLAG-AT1R preincubated with 10 μM olmesartan at 4 °C for 30 min; detected with αV5-AlexaFluor647; 20 mM Hepes pH 7.4, 150 mM NaCl, 0.1% BSA. In general terms: In flow cytometry, cells or beads pass a laser one at a time.

Experiment [4] addresses T1, FLAG-tagged wild-type human angiotensin …. Put plainly: flow cytometry on cells; purified nanobody (single point 250 or 500 nM, or titrated) on Expi293F TetR cells expressing FLAG-AT1R, unliganded; 1 h; detected with αV5-AlexaFluor647; 20 mM Hepes pH 7.4, 150 mM NaCl, 0.1% BSA. As to conditions: one partner purified.
In experiment [5] the target is T2, FLAG-tagged human angiotensin II type I receptor (FLAG-AT1R) (human).
T2 construct: also called WT receptor; pMAS85; source: Expi293F TetR, transfected, purified in LMNG/CHS (M1-αFLAG resin, SEC); also Expi293F TetR cells stably expressing FLAG-AT1R under a tetracycline-inducible promoter, on intact cells; not shown: FLAG, N-terminal, kept
T2 chain: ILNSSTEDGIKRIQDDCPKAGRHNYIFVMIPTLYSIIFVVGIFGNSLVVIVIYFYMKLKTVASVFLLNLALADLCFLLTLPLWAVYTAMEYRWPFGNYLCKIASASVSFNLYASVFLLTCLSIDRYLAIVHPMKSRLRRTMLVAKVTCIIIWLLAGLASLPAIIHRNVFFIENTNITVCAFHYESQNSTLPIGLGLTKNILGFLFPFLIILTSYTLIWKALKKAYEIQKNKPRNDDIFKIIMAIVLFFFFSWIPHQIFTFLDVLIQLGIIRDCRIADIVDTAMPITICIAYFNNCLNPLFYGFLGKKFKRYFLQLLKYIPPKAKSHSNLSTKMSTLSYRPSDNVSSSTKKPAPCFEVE
Put plainly: flow cytometry on cells; soluble nanobody titrated on Expi293F TetR cells expressing FLAG-AT1R, unliganded receptor; 20 mM Hepes pH 7.4, 150 mM NaCl, 0.1% BSA, 4 °C; detected with αV5-AlexaFluor647. Conditions: one partner purified.

Experiment [6] deals with T2, FLAG-tagged human angiotensin II type I …. The experiment in a line: flow cytometry on cells; soluble nanobody titrated on Expi293F TetR cells expressing FLAG-AT1R, receptor pre-bound to losartan (10 μM, 5 μM in washes); 20 mM Hepes pH 7.4, 150 mM NaCl, 0.1% BSA, 4 °C; detected with αV5-AlexaFluor647. As to conditions: one partner purified.
Experiment [7] deals with T1, FLAG-tagged wild-type human angiotensin …. The experiment in a line: flow cytometry on cells; nanobody displayed on yeast; 100 nM unliganded detergent-purified FLAG-AT1R in solution, detected with fluorophore-conjugated M1-αFLAG; 4 °C, 30 min; 20 mM Hepes pH 7.5, 150 mM NaCl, 2.8 mM CaCl2, 0.05% LMNG, 0.005% CHS. As to conditions: one partner purified.

Read-outs that look alike come from different tables or passages of the source.

B1: AT207 (VHH)
VHH: QVQLQESGGGLVQAGGSLRLSCAASGYIFTHSSMGWYRQAPGKEREFVAAITVGANTNYADSVKGRFTISRDNAKNTVYLQMNSLKPEDTAVYYCAAYNPFYPVYIYWGQGTQVTVSS
notes: synthetic nanobody AT207; source: E. coli BL21(DE3), periplasm, purified (Ni-NTA); not shown: V5, C-terminal, kept
Consider B1, for which the binding result in experiment [1] was “binds”.

B2: AT212 (VHH)
VHH: QVQLQESGGGLVQAGGSLRLSCAASGSISNYKYMGWYRQAPGKERELVATIGGGATTNYADSVKGRFTISRDNAKNTVYLQMNSLKPEDTAVYYCAAVRAGYSLYYPYFYYWGQGTQVTVSS
For B2, the binding result in experiment [2] was “binds”.

B3: AT201 (VHH)
VHH: QVQLQESGGGLVQAGGSLRLSCAASGTISDPPYMGWYRQAPGKERELVAAIDVGANTYYADSVKGRFTISRDNAKNTVYLQMNSLKPEDTAVYYCAVEYDAQVPHQYWGQGTQVTVSS
Regarding B3, in experiment [2], the binding result was “binds”.

B4: AT203 (VHH)
VHH: QVQLQESGGLVQAGGSLRLSCAASGYISRSYDMGWYRQAPGKERELVASINEGSTTNYADSVKGRFTISRDNAKNTVYLQMNSLKPEDTAVYYCAAYTYGHGDYHVYWGQGTQVTVSS
For B4, the binding result in experiment [2] is reported as “binds”.

B5: AT209 (VHH)
VHH: QVQLQESGGGLVQAGGSLRLSCAASGYIFYRYSMGWYRQAPGKEREFVAGISYGATTNYADSVKGRFTISRDNAKNTVYLQMNSLKPEDTAVYYCAAWGGRTLYFVYWGQGTQVTVSS
As a reminder, the Kd is the equilibrium constant for the complex coming apart. A high value points to weaker binding. With B5, the Kd in experiment [3] came to 100 nM.

B6: AT209 L103D (VHH)
VHH: QVQLQESGGGLVQAGGSLRLSCAASGYIFYRYSMGWYRQAPGKEREFVAGISYGATTNYADSVKGRFTISRDNAKNTVYLQMNSLKPEDTAVYYCAAWGGRTDYFVYWGQGTQVTVSS
notes: as the chain of AT209 with L103D in CDR3; also called AT209 L103D^CDR3; AT209 L103D variant; source: E. coli BL21(DE3), periplasm, purified (Ni-NTA); not shown: V5, C-terminal, kept
Regarding B6, the binding result in experiment [4] is given as “binds”.

B7: nanobody AT209 L103D (VHH)
VHH: QVQLQESGGGLVQAGGSLRLSCAASGYIFYRYSMGWYRQAPGKEREFVAGISYGATTNYADSVKGRFTISRDNAKNTVYLQMNSLKPEDTAVYYCAAWGGRTDYFVYWGQGTQVTVSS
notes: the substitution L103D is still to be applied; also called AT209 L103D^CDR3; source: E. coli BL21(DE3), periplasm, purified (Ni-NTA); not shown: V5, C-terminal, kept
On to B7, for which, in experiment [5], the Kd was 144 nM.

B8: AT208 (VHH)
VHH: QVQLQESGGGLVQAGGSLRLSCAASGYIFTRYRMGWYRQAPGKEREFVAAIGDGGTTNYADSVKGRFTISRDNAKNTVYLQMNSLKPEDTAVYYCAAYYVSRPNYGTIYVYWGQGTQVTVSS
notes: synthetic nanobody AT208; source: E. coli BL21(DE3), periplasm, purified (Ni-NTA); not shown: V5, C-terminal, kept
Consider B8, for which the binding result in experiment [1] was “binds”.

B9: AT118-H CDR1-AT206 CDR2 CDR3 chimeric nanobody (AT118-AT206) (VHH)
VHH: QVQLQESGGGLVQAGGSLRLSCAASDYIYRRYRMGWYRQAPGKEREFVAGIGVGTTTNYADSVKGRFTISRDNAKNTVYLQMNSLKPEDTAVYYCAAYNYFPRSIVYYYVYWGQGTQVTVSS
notes: AT206 with its CDR1 replaced by CDR1 of AT118-H and the G26D stabilising substitution; also called AT118-H G26D CDR1, AT206 CDR 2&3; source: E. coli BL21(DE3), periplasm, purified (Ni-NTA); not shown: V5, C-terminal, kept
As to B9, the Kd in experiment [5] stood at 206 nM; in experiment [6], 153 nM.

B10: AT118-H CDR1-AT206 CDR2 CDR3 chimeric nanobody (AT118-AT206) (VHH)
VHH: QVQLQESGGGLVQAGGSLRLSCAASDYIYRRYRMGWYRQAPGKEREFVAGIGVGTTTNYADSVKGRFTISRDNAKNTVYLQMNSLKPEDTAVYYCAAYNYFPRSIVYYYVYWGQGTQVTVSS
notes: as the chain of AT206 with CDR1 replaced by CDR1 of AT118-H and the stabilising substitution G26D; also called AT118-AT206 chimera; source: E. coli BL21(DE3), periplasm, purified (Ni-NTA); not shown: V5, C-terminal, kept
Consider B10, for which the “fold increase in affinity over AT206” value in experiment [1] worked out at 2 fold.

B11: AT211 (VHH)
VHH: QVQLQESGGGLVQAGGSLRLSCAASGTISHSAGMGWYRQAPGKERELVAAISGGTITNYADSVKGRFTISRDNAKNTVYLQMNSLKPEDTAVYYCAALGYWRRAGGTYYVVHYYWGQGTQVTVSS
notes: synthetic nanobody AT211; source: E. coli BL21(DE3), periplasm, purified (Ni-NTA); not shown: V5, C-terminal, kept
B11: the binding result in experiment [1] is on record as “binds”.

B12: AT213 (VHH)
VHH: QVQLQESGGGLVQAGGSLRLSCAASGYIFYGATMGWYRQAPGKEREFVAGINYGGSTNYADSVKGRFTISRDNAKNTVYLQMNSLKPEDTAVYYCAVWDTYAQRRSSYFVYWGQGTQVTVSS
Regarding B12, the binding result in experiment [2] was “binds”.

B13: AT210 (VHH)
VHH: QVQLQESGGGLVQAGGSLRLSCAASGTISSWSFMGWYRQAPGKEREFVATIAPGSSTNYADSVKGRFTISRDNAKNTVYLQMNSLKPEDTAVYYCAVYYGVPRFHVYWGQGTQVTVSS
B13: in experiment [2], the binding result was “binds”.

B14: nanobody AT206 (VHH)
VHH: QVQLQESGGGLVQAGGSLRLSCAASGSISYYRMGWYRQAPGKEREFVAGIGVGTTTNYADSVKGRFTISRDNAKNTVYLQMNSLKPEDTAVYYCAAYNYFPRSIVYYYVYWGQGTQVTVSS
notes: source: E. coli BL21(DE3), periplasm, purified (Ni-NTA); not shown: V5, C-terminal, kept
B14 had a Kd in experiment [6] of 363 nM.

B15: AT206 (VHH)
VHH: QVQLQESGGGLVQAGGSLRLSCAASGSISYYRMGWYRQAPGKEREFVAGIGVGTTTNYADSVKGRFTISRDNAKNTVYLQMNSLKPEDTAVYYCAAYNYFPRSIVYYYVYWGQGTQVTVSS
notes: synthetic nanobody AT206; also in the deposited structures; also called parent clone of AT118-AT206; source: E. coli BL21(DE3), periplasm, purified (Ni-NTA); not shown: V5, C-terminal, kept
Regarding B15, the binding result in experiment [1] is “binds”.

B16: AT206, yeast-displayed (VHH)
VHH: QVQLQESGGGLVQAGGSLRLSCAASGSISYYRMGWYRQAPGKEREFVAGIGVGTTTNYADSVKGRFTISRDNAKNTVYLQMNSLKPEDTAVYYCAAYNYFPRSIVYYYVYWGQGTQVTVSS
notes: synthetic nanobody AT206; also in the deposited structures; the anchor is not described here
As to B16, in experiment [7], the binding result was “binds”.

B17: AT205 (VHH)
VHH: QVQLQESGGGLVQAGGSLRLSCAASGYIFYDSVMGWYRQAPGKEREFVAAIAAGSSTNYADSVKGRFTISRDNAKNTVYLQMNSLKPEDTAVYYCGEYYNWLHQYWGQGTQVTVSS
notes: synthetic nanobody AT205; source: E. coli BL21(DE3), periplasm, purified (Ni-NTA); not shown: V5, C-terminal, kept
Turning to B17, in experiment [1], the binding result is reported as “binds”.

These data come from PMC11929449, “Epitope-directed selection of GPCR nanobody ligands with evolvable function” (Proceedings of the National Academy of Sciences of the …, 2025).
